From PMC5970223, “Multiplexed profiling of GPCR activities by combining split TEV assays and EXT-based barcoded readouts” (Scientific Reports, 2018)
Structures can show the parent of a compound that is named as a salt.

Legend:
[1] = tested on: dopamine and the adrenergic receptors; conditions: U2OS cells, agonist 100 pM to 100 µM
Experimental: (§1) Two hours after transfection, all cell populations were pooled, mixed, and evenly divided into fractions for plating onto assay dishes (Fig. 2a). The cells were cultured and stimulated under identical conditions for agonist or antagonist assays as initially described for GPCR split TEV assays (Supplementary Fig. S1a,b).
(§2) After cell lysis, RNA from each sample was isolated and converted into cDNA by reverse transcription. […] This permits the mixing of all samples and sequencing of all pooled samples using a single sequencing run (Fig. 2b). The sample barcodes enable tracing experimental conditions, whereas the read counts per EXTs serve as quantitative measurements for the corresponding GPCRs. […] From the normalized data the fold changes of receptor activities were finally calculated.
(§3) In addition to the stimulation with the single compounds, a compound-mixture (mix) of all agonists was tested. The first set of experiments were carried out in the human osteosarcoma cell line U2OS. We normalized the raw sequencing data to total read numbers of sample codes, followed by averaging reads of internal and external calibrator EXTs as described above (Supplementary Fig. S4).
(§4) Cells were resuspended in culture medium without antibiotics at a density of 1.5 × 10^6 cells/ml (U2OS) or 3 × 10^6 cells/ml (PC12). […] Transfection-mixes were added to cell suspensions and incubated for 2 h at 37 °C without shaking. Suspensions were centrifuged for 5 min at 900 rpm and resuspended in culture medium to remove transfection reagents. All transfection samples were combined within one pool and plated on multiple wells of 6-well plates and incubated for 24 h at 37 °C. Afterwards, cells were starved for 17–18 h and then treated with compounds for 6 h in duplicates. After compound treatment cells were washed with PBS and 500 µl RLT lysis buffer was applied for cell lysis. Lysates were processed for sequencing as described below.
RNA was additional in solution treated with Turbo DNase (Ambion) for 30 min at 37 °C and repurified over an RNeasy column. […]

[2] = tested on: T1, somatostatin receptor SSTR1; assay: multiplexed GPCRprofiler assay in U2OS cells; type: cell-based, human; conditions: agonist 100 pM to 100 µM
T1 construct: ORFs of GPCRs were PCR amplified; expressed in transfected cells; host or cells: U2OS
Experimental: as §1, §2, §3, §4
(§5) RNA was additional in solution treated with Turbo DNase (Ambion) for 30 min at 37 °C and repurified over an RNeasy column. First-strand cDNA synthesis was performed with 1 µg total RNA using superscript III reverse transcriptase (Invitrogen) and 120 pmol of a random nanomer primer. […] On order to differentiate different samples 13mer barcodes were introduced between 5′ Ion adapter and target sequence. All processed samples of an experiment were combined within one pool and purified using PCR clean-up kit (Macherey-Nagel).
(§6) Raw sequencing data analyses were done by using BLAST algorithm and in-house developed R scripts.

[3] = tested on: T2, somatostatin receptor SSTR2; assay: multiplexed GPCRprofiler assay in U2OS cells; type: cell-based, human; conditions: agonist 100 pM to 100 µM
T2 construct: ORFs of GPCRs were PCR amplified; expressed in transfected cells; host or cells: U2OS
Experimental: as §1, §2, §3, §4, §5, §6

[4] = tested on: T3, somatostatin receptor SSTR3; assay: multiplexed GPCRprofiler assay in U2OS cells; type: cell-based, human; conditions: agonist 100 pM to 100 µM
T3 construct: ORFs of GPCRs were PCR amplified; expressed in transfected cells; host or cells: U2OS
Experimental: as §1, §2, §3, §4, §5, §6

[5] = tested on: T4, Vasopressin receptor AVPR1A; assay: multiplexed GPCRprofiler assay in U2OS cells; type: cell-based, human; conditions: agonist 100 pM to 100 µM
T4 construct: ORFs of GPCRs were PCR amplified; expressed in transfected cells; host or cells: U2OS
Experimental: as §1, §2, §3, §4, §5, §6

[6] = tested on: T5, Vasopressin receptor AVPR2; assay: multiplexed GPCRprofiler assay in U2OS cells; type: cell-based, human; conditions: agonist 100 pM to 100 µM
T5 construct: ORFs of GPCRs were PCR amplified; expressed in transfected cells; host or cells: U2OS
Experimental: as §1, §2, §3, §4, §5, §6

[7] = target: ADRA1A-V2R-NTEV-tevS-GV (human) (UniProt P35348); assay: split reporter (BiFC, NanoBiT); multiplexed GPCRprofiler: split TEV with EXT barcode read-out, identical experiment in PC12 cells (Supplementary Fig. S5)
ADRA1A-V2R-NTEV-tevS-GV (human), sequence (P35348 whole entry): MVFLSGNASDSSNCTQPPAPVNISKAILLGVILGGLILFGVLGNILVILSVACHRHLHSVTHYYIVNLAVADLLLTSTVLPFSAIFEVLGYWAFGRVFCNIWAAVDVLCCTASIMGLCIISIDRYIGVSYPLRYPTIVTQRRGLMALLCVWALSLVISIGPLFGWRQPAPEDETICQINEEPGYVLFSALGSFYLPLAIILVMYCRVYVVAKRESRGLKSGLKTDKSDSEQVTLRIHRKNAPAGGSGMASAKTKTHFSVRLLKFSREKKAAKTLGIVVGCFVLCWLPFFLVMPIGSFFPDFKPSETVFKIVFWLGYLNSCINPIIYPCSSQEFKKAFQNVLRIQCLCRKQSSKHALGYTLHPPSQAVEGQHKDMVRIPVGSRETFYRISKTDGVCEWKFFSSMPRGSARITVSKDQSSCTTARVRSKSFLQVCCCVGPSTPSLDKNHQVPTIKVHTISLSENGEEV

[8] = target: AVPR1A-V2R-NTEV-tevS-GV (human) (UniProt P37288); assay: as above
AVPR1A-V2R-NTEV-tevS-GV (human), sequence (P37288 whole entry): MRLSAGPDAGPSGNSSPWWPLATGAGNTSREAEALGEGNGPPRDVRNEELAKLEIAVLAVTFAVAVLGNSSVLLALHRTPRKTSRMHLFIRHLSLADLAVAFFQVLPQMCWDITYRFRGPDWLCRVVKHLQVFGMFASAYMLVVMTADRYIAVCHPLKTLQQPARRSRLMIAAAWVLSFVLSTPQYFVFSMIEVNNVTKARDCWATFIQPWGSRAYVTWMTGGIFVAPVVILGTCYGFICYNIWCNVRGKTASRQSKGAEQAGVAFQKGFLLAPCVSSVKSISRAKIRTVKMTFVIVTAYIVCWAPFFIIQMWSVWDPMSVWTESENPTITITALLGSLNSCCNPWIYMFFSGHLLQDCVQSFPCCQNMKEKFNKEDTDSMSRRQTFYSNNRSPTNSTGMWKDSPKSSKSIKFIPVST

[9] = target: HTR2A-V2R-NTEV-tevS-GV (human) (UniProt P28223); assay: as above
[10] = target: ADRA2B-V2R-NTEV-tevS-GV (human) (UniProt P18089); assay: split reporter (BiFC, NanoBiT); multiplexed GPCRprofiler: split TEV with EXT barcode read-out, U2OS cells transiently transfected with GPCR-V2R-NTEV-tevS-GV and β-arrestin2delta-CTEV, pooled; serotonin, dopamine, epinephrine, vasopressin, somatostatin or their mix, 100 pM to 100 µM, 6 h; also with paliperidone or aripiprazole alone or with an agonist mix (1 µM each, with histamine); fold change over unstimulated
ADRA2B-V2R-NTEV-tevS-GV (human), sequence (P18089 whole entry): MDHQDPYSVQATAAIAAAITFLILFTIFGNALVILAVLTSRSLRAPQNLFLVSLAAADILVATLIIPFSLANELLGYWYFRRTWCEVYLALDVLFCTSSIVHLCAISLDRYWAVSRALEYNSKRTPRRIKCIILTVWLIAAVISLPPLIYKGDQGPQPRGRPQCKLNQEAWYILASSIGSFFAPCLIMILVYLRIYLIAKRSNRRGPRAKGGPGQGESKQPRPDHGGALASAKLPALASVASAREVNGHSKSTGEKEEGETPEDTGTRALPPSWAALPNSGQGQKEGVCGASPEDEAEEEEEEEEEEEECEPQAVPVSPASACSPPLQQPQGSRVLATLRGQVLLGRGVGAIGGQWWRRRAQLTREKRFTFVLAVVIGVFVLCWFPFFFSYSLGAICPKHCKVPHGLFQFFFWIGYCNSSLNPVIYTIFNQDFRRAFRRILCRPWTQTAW

[11] = target: ADRA2C-V2R-NTEV-tevS-GV (human) (UniProt P18825); assay: as above
ADRA2C-V2R-NTEV-tevS-GV (human), sequence (P18825 whole entry): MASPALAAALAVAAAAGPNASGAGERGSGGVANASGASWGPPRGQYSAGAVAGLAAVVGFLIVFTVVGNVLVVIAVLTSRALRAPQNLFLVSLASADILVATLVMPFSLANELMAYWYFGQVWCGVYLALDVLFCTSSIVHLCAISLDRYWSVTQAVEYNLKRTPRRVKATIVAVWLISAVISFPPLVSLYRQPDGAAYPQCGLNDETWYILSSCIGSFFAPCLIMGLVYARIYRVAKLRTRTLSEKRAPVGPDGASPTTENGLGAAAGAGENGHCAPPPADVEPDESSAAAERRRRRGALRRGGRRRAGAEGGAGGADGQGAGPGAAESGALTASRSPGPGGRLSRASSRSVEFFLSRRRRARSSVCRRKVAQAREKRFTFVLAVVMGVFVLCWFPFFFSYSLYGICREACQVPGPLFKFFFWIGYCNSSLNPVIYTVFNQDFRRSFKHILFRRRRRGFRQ

[12] = target: DRD1-V2R-NTEV-tevS-GV (human) (UniProt P21728); assay: as above
[13] = target: DRD2-V2R-NTEV-tevS-GV (human) (UniProt P14416); assay: as above
DRD2-V2R-NTEV-tevS-GV (human), sequence (P14416 whole entry): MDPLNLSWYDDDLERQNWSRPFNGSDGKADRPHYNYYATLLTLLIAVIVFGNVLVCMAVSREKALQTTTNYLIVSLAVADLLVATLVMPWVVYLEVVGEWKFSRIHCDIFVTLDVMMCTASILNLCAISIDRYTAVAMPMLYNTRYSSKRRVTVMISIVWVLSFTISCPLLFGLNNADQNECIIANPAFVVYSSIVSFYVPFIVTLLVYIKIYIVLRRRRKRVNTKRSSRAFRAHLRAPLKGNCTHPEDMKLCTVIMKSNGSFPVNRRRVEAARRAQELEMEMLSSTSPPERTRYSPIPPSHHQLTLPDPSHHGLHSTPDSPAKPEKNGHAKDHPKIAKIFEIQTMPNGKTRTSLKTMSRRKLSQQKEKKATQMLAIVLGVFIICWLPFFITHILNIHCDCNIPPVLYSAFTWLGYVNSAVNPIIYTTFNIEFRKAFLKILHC

[14] = target: DRD3-V2R-NTEV-tevS-GV (human) (UniProt P35462); assay: as above
DRD3-V2R-NTEV-tevS-GV (human), sequence (P35462 whole entry): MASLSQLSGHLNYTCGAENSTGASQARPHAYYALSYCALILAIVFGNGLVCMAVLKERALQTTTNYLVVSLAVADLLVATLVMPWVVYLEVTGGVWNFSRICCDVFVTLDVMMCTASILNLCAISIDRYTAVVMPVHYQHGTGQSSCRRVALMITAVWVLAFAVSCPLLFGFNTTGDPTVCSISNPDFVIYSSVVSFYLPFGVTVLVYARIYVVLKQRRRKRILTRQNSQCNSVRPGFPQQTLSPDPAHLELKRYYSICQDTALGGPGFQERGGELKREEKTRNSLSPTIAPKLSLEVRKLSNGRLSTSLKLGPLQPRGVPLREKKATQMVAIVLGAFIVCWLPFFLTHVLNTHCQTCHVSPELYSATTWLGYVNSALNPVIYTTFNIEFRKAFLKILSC

[15] = target: SSTR1-V2R-NTEV-tevS-GV (human) (UniProt P30872); assay: as above
SSTR1-V2R-NTEV-tevS-GV (human), sequence (P30872 whole entry): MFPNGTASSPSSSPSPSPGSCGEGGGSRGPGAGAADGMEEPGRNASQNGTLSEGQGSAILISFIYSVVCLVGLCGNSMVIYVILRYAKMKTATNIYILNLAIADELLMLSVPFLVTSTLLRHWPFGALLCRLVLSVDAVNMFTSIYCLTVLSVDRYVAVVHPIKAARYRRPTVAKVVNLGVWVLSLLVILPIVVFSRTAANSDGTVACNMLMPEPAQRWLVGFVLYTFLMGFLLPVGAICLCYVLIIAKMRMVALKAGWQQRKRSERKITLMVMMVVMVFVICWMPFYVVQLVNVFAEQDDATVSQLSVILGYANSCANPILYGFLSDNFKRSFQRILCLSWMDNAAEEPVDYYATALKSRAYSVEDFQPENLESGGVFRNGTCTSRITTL

SSTR2 and SSTR3 = assay: as above

β-arrestin2delta-CTEV, sequence (P32121 1-383, stated change not applied): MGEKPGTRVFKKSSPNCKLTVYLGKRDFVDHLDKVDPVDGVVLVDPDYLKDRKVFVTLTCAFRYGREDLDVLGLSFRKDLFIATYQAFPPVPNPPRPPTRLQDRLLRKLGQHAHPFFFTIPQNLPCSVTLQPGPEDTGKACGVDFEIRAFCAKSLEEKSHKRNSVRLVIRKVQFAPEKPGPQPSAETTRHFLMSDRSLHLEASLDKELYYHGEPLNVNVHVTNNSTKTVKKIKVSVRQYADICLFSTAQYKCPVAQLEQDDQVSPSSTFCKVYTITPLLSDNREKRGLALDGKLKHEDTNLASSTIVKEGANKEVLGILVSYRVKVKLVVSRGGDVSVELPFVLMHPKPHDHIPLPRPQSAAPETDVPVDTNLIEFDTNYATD

`CNC[C@H](O)c1ccc(O)c(O)c1` [Epinephrine, Epinephrine hydrochloride] was tested, and the “signals of both receptor subfamilies (dopamine and adrenergic) upon stimulation” value [1] was “elevated signals”.
With Somatostatin the “induction rate (up to)” value [2] was “up to 4 fold”, the “induction rate (up to)” value [3] was 9–10 fold and the “induction rate (up to)” value [4] was 9–10 fold.
With [Arg8]-Vasopressin acetate salt the “receptor induction by agonist” value [5] was “induced” and the “receptor induction by agonist” value [6] was “induced”.
Molecule “β-arrestin2delta-CTEV (from UniProt P32121 1-383) (domain or fragment)” has a fold activation (split TEV signal) [7] of 314 fold, a fold activation (split TEV signal) [8] of 44.3 fold and a fold activation (split TEV signal) [9] of 89.5 fold. The fold change of receptor activation (split TEV signal) over unstimulated [10] was 10 fold, the fold change of receptor activation (split TEV signal) over unstimulated [11] was 13 fold and the fold change of receptor activation (split TEV signal) over unstimulated [12] was 2 fold. For the same molecule, the fold change of receptor activation (split TEV signal) over unstimulated, at 10 µM serotonin [13] was 5 fold, the fold change of receptor activation (split TEV signal) over unstimulated [14] was 2 fold and the fold change of receptor activation (split TEV signal) over unstimulated [15] was 4 fold. For the same molecule, the fold change of receptor activation (split TEV signal) over unstimulated (SSTR2 and SSTR3) was 9 to 10 fold.
